Reference: article doi:10.1101/382812

Target: Hcf106 G6CV14C (Pisum sativum)
Test: cross-linking

Hcf106 G6CV14C (natural protein)
stoichiometry N: < 8
